The results in this text go back to paper PMC11435836 (Vaccines, 2024).

This data set deals with the molecule itself. In words: SEC; Superose 6 Increase 10/300 GL; single ENC particles eluted at 11-12 mL, highly aggregated particles at 8-9 mL. Background: SEC sorts molecules by how far they enter the pores of the column.

B1: encapsulin (ENC) from Thermotoga maritima (natural protein, UniProt Q9WZP2 1-264, looked up)
chain: MEFLKRSFAPLTEKQWQEIDNRAREIFKTQLYGRKFVDVEGPYGWEYAAHPLGEVEVLSDENEVVKWGLRKSLPLIELRATFTLDLWELDNLERGKPNVDLSSLEETVRKVAEFEDEVIFRGCEKSGVKGLLSFEERKIECGSTPKDLLEAIVRALSIFSKDGIEGPYTLVINTDRWINFLKEEAGHYPLEKRVEECLRGGKIITTPRIEDALVVSERGGDFKLILGQDLSIGYEDREKDAVRLFITETFTFQVVNPEALILLK
notes: also called ENC NPs; ENC PNPs; copies: 60
Take B1: the binding result was “binds”.
